Where a chain is given by its changes, count along the chain named. Names may count otherwise.
T1: human 5T4ECDHis (mature protein of SEQ ID NO: 99) (human, UniProt Q13641 32-355)
T1 construct: ECD of human 5T4 (aa 1-355 of Uniprot Q13641) with C-terminal His tag; residues 1-31 are the signal peptide; also called ECD of human 5T4 with a C-terminal His tag
T1 sequence: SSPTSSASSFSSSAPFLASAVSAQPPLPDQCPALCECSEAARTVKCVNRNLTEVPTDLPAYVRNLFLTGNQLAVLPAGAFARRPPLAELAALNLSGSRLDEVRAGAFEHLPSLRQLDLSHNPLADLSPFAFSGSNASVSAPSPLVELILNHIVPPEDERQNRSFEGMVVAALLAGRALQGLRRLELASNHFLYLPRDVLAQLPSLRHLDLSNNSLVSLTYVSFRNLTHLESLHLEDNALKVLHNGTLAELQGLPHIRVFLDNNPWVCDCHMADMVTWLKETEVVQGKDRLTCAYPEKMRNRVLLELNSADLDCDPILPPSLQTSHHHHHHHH

T2: recombinant cynomolgus monkey 5T4 protein (Cusabio; cat. no. CSB-MP024093MOV) (cynomolgus monkey, UniProt Q4R8Y9 35-355)
T2 construct: extracellular domain; Bought protein; also called cynomolgus 5T4; cynomolgus monkey 5T4 extracellular domain
T2 sequence (looked up): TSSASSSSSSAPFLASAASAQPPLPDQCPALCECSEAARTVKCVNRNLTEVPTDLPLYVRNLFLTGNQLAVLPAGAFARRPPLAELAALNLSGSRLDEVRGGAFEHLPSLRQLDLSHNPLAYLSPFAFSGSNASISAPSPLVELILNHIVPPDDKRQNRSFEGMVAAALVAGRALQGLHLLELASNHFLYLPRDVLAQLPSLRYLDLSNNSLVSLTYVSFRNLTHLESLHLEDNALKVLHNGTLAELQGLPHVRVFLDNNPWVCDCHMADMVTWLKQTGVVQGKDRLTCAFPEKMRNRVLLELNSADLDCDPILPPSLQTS

T3: full length chicken 5T4 (SEQ ID NO: 3) on transfected HEK-293 cells (chicken)
T3 construct: Uniprot R4GM46; residues 1-27 are the signal peptide
T3 chain: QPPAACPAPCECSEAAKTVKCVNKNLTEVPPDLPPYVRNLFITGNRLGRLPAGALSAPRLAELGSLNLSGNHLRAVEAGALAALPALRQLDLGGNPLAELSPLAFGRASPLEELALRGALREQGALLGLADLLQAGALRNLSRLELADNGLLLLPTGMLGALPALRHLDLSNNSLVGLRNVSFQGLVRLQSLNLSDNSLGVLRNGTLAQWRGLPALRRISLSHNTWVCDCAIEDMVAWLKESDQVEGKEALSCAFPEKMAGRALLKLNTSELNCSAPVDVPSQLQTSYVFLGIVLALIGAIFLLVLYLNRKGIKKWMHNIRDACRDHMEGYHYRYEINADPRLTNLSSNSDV

T4: full length cynomolgus monkey 5T4 on transfected HEK-293 cells (cynomolgus monkey, UniProt Q4R8Y9 35-420)
T4 construct: Uniprot Q4R8Y9; residues 1-34 are the signal peptide; also called cynomolgus 5T4
T4 sequence: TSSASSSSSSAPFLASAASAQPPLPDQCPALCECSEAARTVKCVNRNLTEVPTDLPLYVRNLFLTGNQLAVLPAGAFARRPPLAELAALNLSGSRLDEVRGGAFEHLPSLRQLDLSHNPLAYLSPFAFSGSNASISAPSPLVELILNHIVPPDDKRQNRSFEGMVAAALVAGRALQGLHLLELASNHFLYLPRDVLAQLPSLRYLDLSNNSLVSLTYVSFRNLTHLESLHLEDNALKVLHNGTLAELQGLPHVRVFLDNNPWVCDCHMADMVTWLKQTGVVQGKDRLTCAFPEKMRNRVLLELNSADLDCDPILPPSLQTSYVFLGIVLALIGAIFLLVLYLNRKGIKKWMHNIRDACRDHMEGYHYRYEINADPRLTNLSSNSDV

B1: IgG1-5T4-207-FEAR (antibody, V domains shown)
VH: QVQLQQWGAGLLKPSETLSLTCAVYGGSFSGYYWTWIRQPPGKGLEWIGEIDHSESTNYNPSLKSRVTISVDTSKNQFSLKLSSVTAADTAVYYCAGWFGELYHYYYGMDVWGQGTTVTVSS
VL: EIVLTQSPATLSLSPGERATLSCRASQSVSSYLAWYQQKPGQAPRLLIYDASNRATGIPARFSGSGSGTDFTLTISSLEPEDFAVYYCQQRSNWPLTFGGGTKVEIKR
notes: Monospecific, bivalent IgG1 FEAR
B2: IgG1-5T4-226-FEAR (antibody, V domains shown)
VH: B1 VH with T35S, E55G, G97A, Y103W, H104D
VL: EIVLTQSPATLSLSPGERATLSCRASQSVSSFLAWYQQKPGQAPRLLIYDASNRATGIPARFSGSGSGTDFTLTISSLEPEDFAVYYCQQRSNWPLTFGQGTRLEIK
notes: Monospecific, bivalent human IgG1 kappa with L234F, L235E, D265A, K409R (FEAR); also called IgG1-5T4-226-FEAR-FITC

Key:
[1] = molecular target: T1, human 5T4ECDHis (mature protein of SEQ …); experiment: BLI cross-block; competitor (immobilised): IgG1-5T4-A1-F405L
[2] = molecular target: T1, human 5T4ECDHis (mature protein of SEQ …); experiment: BLI cross-block; competitor (immobilised): IgG1-5T4-059-FEAR
Protocol: (§1) Antibody cross-block analysis (epitope binning) was performed using biolayer interferometry on an Octet HTX instrument (ForteBio). 5T4 antibodies (20 µg/mL in 10 mM sodium acetate buffer pH 6.0, ForteBio) were immobilized on Amine-Reactive 2nd Generation (AR2G) biosensors (ForteBio) according to the manufacturer’s instructions. […] Next, the association response of a second 5T4 antibody (10 µg/mL) was determined for 500 s. Biosensors were regenerated by 3 times 5 s exposure to 10 mM glycine pH 2.5 followed by Sample Diluent, and the measurement was repeated with a new set of second 5T4 antibodies starting from the baseline step. Each biosensor was used four times. Measurements were performed at 30° C. using a shaker speed of 1000 rpm. Data were analyzed using Data Analysis Software v9.0.0.12 (ForteBio). The Y-axis was aligned to the association step and Savitzky-Golay filtering was applied. The response of Sample Diluent during the association step was subtracted from the association response of the second antibody in order to correct for the dissociation of 5T4ECDHis from the immobilized antibody. […] In general, responses > 0.1 nm were considered non-blocking antibody pairs (white), while responses between -0.1 and 0.1 nm were considered to be blocking antibody pairs (dark grey). […] In some cases, the data curves needed visual inspection by an expert to assign blocking, non-blocking or displacement properties to antibody pairs.

[3] = molecular target: T1, human 5T4ECDHis (mature protein of SEQ …); experiment: BLI cross-block; competitor (immobilised): IgG1-5T4-226-FEAR
Protocol: as §1

[4] = molecular target: T2, recombinant cynomolgus monkey 5T4 …; experiment: BLI, antibody on anti-human IgG Fc Capture biosensor, antigen in solution
Protocol: (§2) Affinities of the 5T4 antibodies for recombinant 5T4 protein were determined using label-free biolayer interferometry on an Octet HTX instrument (ForteBio, Portsmouth, UK). 5T4 antibodies (1 µg/mL) were immobilized for 600 seconds on anti-human IgG Fc Capture biosensors (ForteBio). […] Data were analyzed with Data Analysis Software v9.0.0.12 (ForteBio). Values of reference wells containing only Sample Diluent during the association and dissociation steps were subtracted from values of wells containing antigen, for each antibody separately. The Y-axis was aligned to the last 10 s of the baseline and Interstep Correction alignment to dissociation as well as Savitzky-Golay filtering was applied. Responses < 0.05 nm were excluded from analysis. The data were fitted using the 1:1 model and a global full fit with 200 s association time and 1000 s or 50 s dissociation time as Window of Interest. The fit with the full dissociation time (1000 s) as Window of Interest was used by default.

[5] = molecular target: T1, human 5T4ECDHis (mature protein of SEQ …); experiment: BLI cross-block; competitor (immobilised): IgG1-5T4-076-FEAR
Protocol: as §1

[6] = molecular target: T3, full length chicken 5T4 (SEQ ID NO: 3) …; experiment: flow cytometry, HEK-293 cells transfected with chicken 5T4, PE secondary
Protocol: After incubation with R-Phycoerythrin (PE)-conjugated goat-anti-human IgG F(ab′)2, the mean fluorescence intensity (MFI) was determined by flow cytometry.
Cells were washed twice in staining buffer, re-suspended in 20 µL staining buffer and analyzed on an iQue screener (Intellicyt Corporation, USA). Binding curves were analyzed by non-linear regression (sigmoidal dose-response with variable slope) using GraphPad Prism V7.02 software (GraphPad Software, San Diego, CA, USA).

[7] = molecular target: T1, human 5T4ECDHis (mature protein of SEQ …); experiment: BLI cross-block; competitor (immobilised): IgG1-5T4-106-FEAR
Protocol: as §1

[8] = molecular target: T1, human 5T4ECDHis (mature protein of SEQ …); experiment: BLI cross-block; competitor (immobilised): IgG1-5T4-207-FEAR
Protocol: as §1

[9] = molecular target: T1, human 5T4ECDHis (mature protein of SEQ …); experiment: BLI cross-block; competitor (immobilised): IgG1-5T4-H8-FEAR
Protocol: as §1

[10] = molecular target: T1, human 5T4ECDHis (mature protein of SEQ …); experiment: BLI, antibody on anti-human IgG Fc Capture biosensor, antigen in solution
Protocol: as §2

[11] = molecular target: T1, human 5T4ECDHis (mature protein of SEQ …); experiment: BLI cross-block; competitor (immobilised): IgG1-5T4-127-FEAR
Protocol: as §1

[12] = molecular target: T1, human 5T4ECDHis (mature protein of SEQ …); experiment: BLI cross-block; competitor (immobilised): IgG1-5T4-085-FEAR
Protocol: as §1

[13] = molecular target: T4, full length cynomolgus monkey 5T4 on …; experiment: flow cytometry, HEK-293 cells transfected with cynomolgus monkey 5T4, PE secondary [II)B]

Binder | corrected association response [1] [nm] | corrected association response [2] [nm] | corrected association response [3] [nm] | Kd [4] [nM] | koff [4] [s⁻¹] | kon [4] [M⁻¹ s⁻¹] | corrected association response [5] [nm] | binding result [6] | corrected association response [7] [nm] | corrected association response [8] [nm] | corrected association response [9] [nm] | Kd [10] [nM] | koff [10] [s⁻¹] | kon [10] [M⁻¹ s⁻¹] | corrected association response [11] [nm] | corrected association response [12] [nm] | EC50 (read off the curve) [13] [µg/mL]
B1 | 0.86 | 0.02 | -0.02 | 6.3 | 0.00087 | 140000 | 0.05 | binds | -0.03 | -0.02 | -0.01 | 2.6 | 0.00068 | 270000 | 0.16 | 0.08 | 
B2 | 0.86 | 0.01 | -0.02 | 11 | 0.0015 | 140000 | 0.05 | binds | -0.02 | -0.02 | -0.01 | 2.5 | 0.00081 | 330000 | 0.16 | 0.07 | ~0.02
